{
  "source": "patent US20240029824A1",
  "about": "(University of Washington, published 2024)",
  "binders": {"B1": {"name": "C3-DHT03-02 chain A (designed binder)", "chain": "SSIFLLSNVDESARQLAEELVREISKKEGTEVRFEKDDGFLTIEVKNLSEERLREIARALQLIVDVANAERVVRERPGSNLAKKALEIILRAAEELAKLTLEASLKAAQIAAELVVREQPGSNLAEKAKTIILQARAAELAIRIEEQLKDTELAKEAKELATEAIKAQDKEALKVVELALKIVQQLPDTELAKEALKLAKEAVKSTDSEALKVVELALEIVQQLPDTELAKEALELAEEAVKSTDSEALKVVKLALEIVQQLPDTELAREALELAKEAVKSTDSEALKVVYLALRIVQQLPDTELARLALELAKKAVEMTAQEVLEIARAALKAAQAFPNTELAELMLRLAEVAARVMKELERNDEEIKKSDELDDESLLEDIVELLKEIIKLWKILVEVSDVMLKLIS", "notes": "three copies in the A3B3C3 ring"}, "B2": {"name": "DHT01-4arm-01 chain A (designed binder)", "chain": "DEEEKLRESLEEQKKRVKEIEREHEEIREALKRLQQSVLRQAVRLAKLGDDSEMINRIVKDLAEQAKEATDKREVIKIVKALAELAKNSTDSELVNEIVKQLAEVAKEATDKELVIYIVKILAELAKQSTDSELVNEIVKQLEEVAKEATDKELVEHIEKILEELKKQSTD", "notes": "also called DHT01-4arm-02 chain A"}, "B3": {"name": "C2-DHT01-04 chain A (designed binder)", "chain": "DEEEKLRESLEEQKKRVKEIEREHEEIREALKRLQQSVLRQAVRLAKLGDDSEMINRIVKDLAEQAKEATDKREVIKIVKALAELAKNSTDRELINEIAKQLAEVAKEATDEELQRYIAKILIELAEQAIKEAERSLREGNPEKAREDVRLALELVRLLLEIAQALNLLEVLEEAARLAFEVARVAKEVGSPETARQARETAERLLEWAMKMIEEKAKKEKDRNDQSSDVNEAAKLIREAAEAAQRAREAASRTGDPEVKDLAWRMVEAALKAAAVVATNPSDEEANEMLKQIVKLAQQAVEMLREAEESGDPEKREKAKQTVEQAIREAELLLLIWEWKRLRERLQELEEQHRELQEELKELREKWKRLKERLERLRLELRLEEMARRARNATDSEQINEIVKQLAEIAKEATDKRAVIKIVKILAELAKKSTDSELVNEIVKQLAEVAKEATDKELVIYIVKILAELAKQSTDSELVNEIVKQLEEVAKEATDKELVEHIEKILEELKKQSTD", "notes": "two copies in the A2B2 ring"}, "B4": {"name": "C3-DHT03-01 chain A (designed binder)", "chain": "TTNFHLINGSEEARQLIQKAVEAISKKEGTEVHFEKSDGTLEIRVKNLHPRQEDLIKKFIEALLLALVAKGELEQAEKEGDAEVALRAVEKVVRVAELLLRLAKEAGSEEALKAALEIAEQAARLAKRVLELAEKQGDAEVALKAVLLVVIVAALLVKIAKESGSEEAKERATRVAREASRLADRVEELARKQNNEDVTLAAKVLKLAADIIAQLMNTELAEEAAQLATEALKATDREQLEVVRLALEIVQLAPDTRLARAALKLAKEAVKSTDQEELKKVKAILRVASEVLKLEEEAKKSQEEVERLKQEVEKASKAGLDHEGDSRIFKKIHDVVTKQIKVILRLIAVYAELVAIIG", "notes": "three copies in the A3B3C3 ring; also called C3-DHT03-01-DHR82 chain A"}, "B5": {"name": "C4-DHT03-01 chain A (designed binder)", "chain": "MGNTHFIVVHGGEEARQLAETAVREISKKEGTEVRFEKKDGLLSIEVKNLSEELQRLIQELLQLLVRLAALLEAVRAVEEAIKRNPDNDEAVETAVRLARELKKVAELLQELAKKAGVPAILRGALLALLVAARAVALAALANSKNDEAREALKRLAEELKKVAKELKERAKKTKDSELERLALAAELMALAAEIVAQLANTELAREALELATEAIKASDDEALRVVKLALRIVQQLPDTELARLALELAKKAVEMTAQEVLEIARAALKAAQAFPNTELAELMLRLAEVAARVMKELERNDEEIKKSDELDDESLLEDIVELLKEIIKLWKILVEVSDVMLKLIS", "notes": "four copies in the A4B4C4 ring; also called C4-DHT03-01-DHR82 chain A"}},
  "key": {"[1]": {"molecular_target": "T1, DHT03 chain C (SEQ ID NO: 59)", "T1 chain": "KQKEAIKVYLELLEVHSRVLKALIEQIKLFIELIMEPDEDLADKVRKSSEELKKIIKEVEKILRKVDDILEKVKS", "experiment": "chains mixed and annealed, SEC, negative stain EM; A3B3C3 ring"}, "[2]": {"molecular_target": "T2, C3-DHT03-02 chain B", "T2 construct": "three copies in the A3B3C3 ring", "T2 chain": "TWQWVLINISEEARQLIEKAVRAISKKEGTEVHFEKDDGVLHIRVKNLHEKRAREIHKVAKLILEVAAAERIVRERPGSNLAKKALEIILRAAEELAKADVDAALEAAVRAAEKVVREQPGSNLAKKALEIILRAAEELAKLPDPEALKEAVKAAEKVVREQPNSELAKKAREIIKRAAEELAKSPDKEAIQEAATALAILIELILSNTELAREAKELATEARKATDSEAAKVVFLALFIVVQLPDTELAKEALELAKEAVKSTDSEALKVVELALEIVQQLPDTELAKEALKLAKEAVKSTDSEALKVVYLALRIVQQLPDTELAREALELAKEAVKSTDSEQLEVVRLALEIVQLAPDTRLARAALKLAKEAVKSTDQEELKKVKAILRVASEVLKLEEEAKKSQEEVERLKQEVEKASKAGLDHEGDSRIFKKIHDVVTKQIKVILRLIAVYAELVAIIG", "experiment": "chains mixed and annealed, SEC, negative stain EM; A3B3C3 ring"}, "[3]": {"molecular_target": "T3, DHT01-4arm-01 chain C", "T3 construct": "also called DHT01-4arm-02 chain C; C2-DHT01-01 chain B", "T3 chain": "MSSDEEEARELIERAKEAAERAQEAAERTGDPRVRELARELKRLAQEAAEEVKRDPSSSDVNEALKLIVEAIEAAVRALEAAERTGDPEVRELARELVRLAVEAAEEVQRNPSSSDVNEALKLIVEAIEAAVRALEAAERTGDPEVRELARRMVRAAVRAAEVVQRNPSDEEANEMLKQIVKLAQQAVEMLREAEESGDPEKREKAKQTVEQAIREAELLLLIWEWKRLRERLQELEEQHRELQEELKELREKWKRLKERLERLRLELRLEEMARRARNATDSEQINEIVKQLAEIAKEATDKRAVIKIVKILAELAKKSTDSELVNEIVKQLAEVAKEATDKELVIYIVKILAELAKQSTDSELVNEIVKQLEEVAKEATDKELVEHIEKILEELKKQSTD", "experiment": "co-expression, pull-downs, SEC, native MS, SAXS; chains of one ABC heterotrimer"}, "[4]": {"molecular_target": "T4, DHT01-4arm-01 chain B", "T4 construct": "Strep-tag II was added to the N-terminus of chain B of DHT01 arms", "T4 chain": "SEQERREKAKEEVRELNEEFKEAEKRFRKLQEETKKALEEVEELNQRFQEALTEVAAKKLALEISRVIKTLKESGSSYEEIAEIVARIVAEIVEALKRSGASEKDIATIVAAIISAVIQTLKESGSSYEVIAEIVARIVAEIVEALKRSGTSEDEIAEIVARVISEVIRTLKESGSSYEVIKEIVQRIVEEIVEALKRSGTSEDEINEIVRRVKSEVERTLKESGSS", "experiment": "co-expression, pull-downs, SEC, native MS, SAXS; chains of one ABC heterotrimer"}, "[5]": {"molecular_target": "T5, DHT01-4arm-02 chain B", "T5 construct": "Strep-tag II was added to the N-terminus of chain B of DHT01 arms; also called C2-DHT01-04 chain B", "T5 chain": "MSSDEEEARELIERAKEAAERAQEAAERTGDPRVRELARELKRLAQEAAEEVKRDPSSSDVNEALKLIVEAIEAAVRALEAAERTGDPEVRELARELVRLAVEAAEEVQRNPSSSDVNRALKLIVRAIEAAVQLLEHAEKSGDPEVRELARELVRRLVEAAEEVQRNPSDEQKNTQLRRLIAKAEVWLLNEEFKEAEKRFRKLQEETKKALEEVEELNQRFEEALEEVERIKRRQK", "experiment": "SEC and SDS-PAGE; chains of one ABC heterotrimer"}, "[6]": {"molecular_target": "T5, DHT01-4arm-02 chain B", "experiment": "bicistronic expression, SAXS, negative stain EM; A2B2 ring"}, "[7]": {"molecular_target": "T6, C3-DHT03-01 chain B", "T6 construct": "three copies in the A3B3C3 ring; also called C3-DHT03-01-DHR82 chain B", "T6 chain": "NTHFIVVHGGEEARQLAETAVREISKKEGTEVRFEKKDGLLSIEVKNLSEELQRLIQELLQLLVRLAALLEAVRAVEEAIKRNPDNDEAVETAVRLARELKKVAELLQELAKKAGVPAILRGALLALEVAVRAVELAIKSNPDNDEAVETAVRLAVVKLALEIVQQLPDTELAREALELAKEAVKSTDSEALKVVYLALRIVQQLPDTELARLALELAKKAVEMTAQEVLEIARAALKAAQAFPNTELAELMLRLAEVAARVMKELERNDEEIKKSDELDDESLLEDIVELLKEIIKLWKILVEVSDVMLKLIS", "experiment": "chains mixed and annealed, SEC, negative stain EM; A3B3C3 ring"}, "[8]": {"molecular_target": "T7, DHT03_3arm_A21/B21/C82 chain C", "T7 construct": "also called chain C DHR82 fusion; chain C of C3-DHT03-01-DHR82 and C4-DHT03-01-DHR82", "T7 chain": "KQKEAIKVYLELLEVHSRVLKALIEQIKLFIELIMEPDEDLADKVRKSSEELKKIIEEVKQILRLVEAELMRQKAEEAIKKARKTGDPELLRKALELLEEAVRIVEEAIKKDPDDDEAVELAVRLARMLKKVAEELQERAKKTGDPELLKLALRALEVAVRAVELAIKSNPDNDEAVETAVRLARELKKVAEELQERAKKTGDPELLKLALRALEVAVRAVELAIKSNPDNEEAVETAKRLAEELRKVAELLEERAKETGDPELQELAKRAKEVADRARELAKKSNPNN", "experiment": "three components purified separately, mixed equimolar, heat annealed, SEC, negative stain EM", "text": "As is evident from the images in FIGS. 4c and 4d, the cyclic structures retain one of the original heterotrimer helical hairpins in each corner; these short, outward facing protein chains provide fusion points for further elaboration of higher order symmetric assemblies. To evaluate the potential for building up larger nanostructures using the rings as hubs, and explore the modularity of the designed building blocks, we replaced the original outward facing chain C helical hairpin with the chain C DHR82 fusion (as it was the largest 4-repeat DHR) from FIG. 3d, row 8. This was done for two designs (C3-DHT03-01 and C4-DHT03-01), with chain C replaced by fusion C82 through expressing and purifying the three components separately, mixing them in equal molar quantities, and reconstituting using heat annealing.\nAn AKTA PURE FPLC system was used. Heterotrimer bases, arm extensions, coiled coil C2 rings, and all constructs mentioned in SI were passed through a Cytvia Superdex S200 Increase 10/300 GL column, while C3/C4 rings made from DHT03 were passed through a Cytvia Superdex S6 Increase 10/300 GL column. The mobile phase was TBS (25 mM Tris-HCl pH 8.0, 100 mM NaCl or 25 mM Tris-HCl pH 8.0, 150 mM NaCl). Samples ran at a flow rate of 0.75 ml/min and fractions were collected at 0.5 ml."}, "[9]": {"molecular_target": "T8, C4-DHT03-01 chain B", "T8 construct": "four copies in the A4B4C4 ring; also called C4-DHT03-01-DHR82 chain B", "T8 chain": "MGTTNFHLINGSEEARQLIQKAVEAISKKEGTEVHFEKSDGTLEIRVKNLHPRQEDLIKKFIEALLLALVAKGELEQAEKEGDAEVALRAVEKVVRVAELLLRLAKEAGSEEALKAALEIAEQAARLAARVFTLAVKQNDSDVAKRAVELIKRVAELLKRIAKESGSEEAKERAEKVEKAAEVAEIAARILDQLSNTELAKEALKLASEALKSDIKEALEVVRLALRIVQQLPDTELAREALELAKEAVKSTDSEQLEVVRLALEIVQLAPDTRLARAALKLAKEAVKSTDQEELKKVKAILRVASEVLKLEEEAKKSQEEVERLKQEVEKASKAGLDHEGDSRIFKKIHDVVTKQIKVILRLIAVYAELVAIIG", "experiment": "chains mixed and annealed, SEC, negative stain EM; A4B4C4 ring"}, "[10]": {"molecular_target": "T1, DHT03 chain C (SEQ ID NO: 59)", "experiment": "chains mixed and annealed, SEC, negative stain EM; A4B4C4 ring"}},
  "data": [
    {"binder": "B1", "values": [
      {"measurement": "binding result", "setting": "[1]", "value": "binds"},
      {"measurement": "binding result", "setting": "[2]", "value": "binds"}
    ]},
    {"binder": "B2", "values": [
      {"measurement": "binding result", "setting": "[3]", "value": "binds"},
      {"measurement": "binding result", "setting": "[4]", "value": "binds"},
      {"measurement": "binding result", "setting": "[5]", "value": "binds"}
    ]},
    {"binder": "B3", "values": [
      {"measurement": "binding result", "setting": "[6]", "value": "binds"}
    ]},
    {"binder": "B4", "values": [
      {"measurement": "binding result", "setting": "[7]", "value": "binds"},
      {"measurement": "binding result", "setting": "[1]", "value": "binds"},
      {"measurement": "binding result", "setting": "[8]", "value": "binds"}
    ]},
    {"binder": "B5", "values": [
      {"measurement": "binding result", "setting": "[9]", "value": "binds"},
      {"measurement": "binding result", "setting": "[10]", "value": "binds"},
      {"measurement": "binding result", "setting": "[8]", "value": "binds"}
    ]}
  ]
}
